The values that follow come from PMC3925751.

The assay concerns the target the model collagen surfaces. Description: SPR. For orientation: In SPR one partner is held on a chip, and binding of the other changes the refractive index at the surface.

The substance “lubricin (PRG4), purified from human synovial fluid (natural protein)” returned an adsorbed amount of 1 to 2 mg/m^2.
